The experiment has as its target PKA (Homo sapiens, UniProt P17612). Kind of experiment: Inhibition of PKA phosphorylation of substrates in vitro (kinetic analysis). In kind it is biochemical. The procedure:
Tissue was processed as described in the legend to FIGS. 1a-1e and immunoblotted for phospho-Thr75 (FIG. 2a), total DARPP-32 (FIG. 2b), or phospho-Thr34 (FIG. 2c). […] Purified DARPP-32 was phosphorylated to a stoichiometry of 0.93 mol/mol using native cdk1/cyclin B purified from sea star. Phospho-Thr75 DARPP-32 was precipitated from the reaction mixture with 5% TCA, resuspended in 1M Tris-HCl (pH 8.8), and dialyzed against 10 mM HEPES (pH 7.4). […] FIG. 2g depicts a Lineweaver-Burki kinetic analysis of PKA phosphorylation of ARPP-21 in the presence of 0 (◯), 5 (□), 10 (⋄), or 15 (Δ) μM Phospho-Thr75 DARPP-32.

B1: phospho-Thr75 DARPP-32: the phosphorylated form of Thr75 DARPP-32; inhibitor of PKA (protein, listed as Homo sapiens)
chain: MDPKDRKKIQFSVPAPPSQLDPRQVEMIRRRRPTPAMLFRLSEHSSPEEEASPHQRASGEGHHLKSKRPNPCAYTPPSLKAVQRIAESHLQSISNLNENQASEEEDELGELRELGYPREEDEEEEEDDEEEEEEEDSQAEVLKVIRQSAGQKTTRGLGLEGPWERPPPLDESERDGGSEDQVEDPALSEPGEEPQRPSPSEPGR
modifications: phosphorylated Thr75
For B1, the “rates of phosphorylation by PKA of inhibitor-1, ARPP-21, synapsin I and histone H1” value (15 μM phospho-Thr75 DARPP-32, purified catalytic subunit of PKA) is “dramatic reduction”. In addition, the “mechanism of PKA inhibition” value (ARPP-21 phosphorylation, 0-15 μM inhibitor) is reported as “linear competitive single site mechanism”.

For the origin of these results see patent publication US6989362B1, “Methods of treating dopamine dysregulation using agents that regulate phosphorylation/dephosphorylation in dopamine signaling” (The Rockefeller University, priority 1999, dated 2006).
